This is an account of results in PMC10072977 (Biochemical and Biophysical Research Communications, 2023).

The target in this assay is biotinylated SARS-CoV-2 WT RBD (Kactus Biosystems, CoV-VM4BDB) (SARS-CoV-2, UniProt P0DTC2, biotin). The assay can be described thus: ELISA.

B1: rabbit monoclonal antibody (RmAb) 9H1 (antibody, V domains shown)
VH: QSVEESGGRLVTPGTPLTLTCTVSGFSLSRYAMSWVRQAPGKGLEWIGIIVDSGHTAYASWAKGRFTISRTSTTVDLKMTSLTTEDTATYFCARETGGGAFYVFEFWGPGTVVTVSS
VL: QVLTQTPSSVSAAVGGTVTINCQASEDIYDNLVWYQQKPGQPPKLLIYDASTLAFGVSSRFRGSGSGTHFTLTMRDVQCDDAATYYCQGEFSCSSGDCTAFGGGTEVVVK
As for B1, the binding result is “binds”.
